The supplement of paper PMC7877785
± gives the uncertainty stated by the source.

Experiment: self-splicing fitness, log relative to wild type (ln ratio); higher = more splicing; Tetrahymena group I intron in knt gene, E. coli kanamycin selection, DiMSum; sequences stand for … in CUCUCU…GGAGGGAAAAGUUAUCAGGCAUGCACCUGGUAGCUAGUCUUUAAACCAAUAGAUUGCAUCGGUUUAAAAGGCAAGACCGUCAAAUUGCGGGAAAGGGGUCAACAGCCGUUCAGUACCAAGUCUCAGGGGAAACUUUGAGAUGGCCUUGCAAAGGGUAUGGUAAUAAGCUGACGGACAUGGUCCUAACCACGCAGCCAAGUCCUAAGUCAACAGAUCUUCUGUUGAUAUGGAUGCAGUUCACAGACUAAAUGUCGGUCGGGGAAGAUGUAUUCUUCUCAUAAGAUAUAGUCGGACCUCUCCUUAAUGGGAGCUAGCGGAUGAAGUGAUGCAACACUGGAGCCGCUGGGAACUAAUUUGUAUGCGAAAGUAUAUUGAUUAGUUUUGGAGUACUCGUGGUCG
Outline: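 A randomised library covering all eight P1ex-region intron nucleotides was built with the intron in the knt kanamycin-resistance gene on pET-22b(+) and held in E. coli BL21(DE3). Cells were grown overnight at 37°C or 30°C on LB agar, with or without 25 μg/mL kanamycin, plus 100 μg/mL carbenicillin, 50 μM IPTG and 0.2% rhamnose, and pooled colonies were amplicon-sequenced on an Illumina HiSeq 2500. DiMSum fitness is the error-weighted combination of wild-type-normalised replicate fold changes, kanamycin versus none.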

Sequence | self-splicing fitness (ln) (30 °C) | self-splicing fitness (ln) (37 °C)
UCACAGCAAUAUUACGCGAC | -3.43 ± 0.21 | -2.51 ± 0.26
UACAAGCAAUAUUACGGGCG | -0.448 ± 0.1 | -0.308 ± 0.11
UUGAAGCAAUAUUACGAUGU | -1.61 ± 0.067 | -0.962 ± 0.11
AUGCAGCAAUAUUACGUAAG | -0.932 ± 0.062 | -0.743 ± 0.077
AACUAGCAAUAUUACGUGGG | -3.79 ± 0.23 | -2.38 ± 0.17
CCCAAGCAAUAUUACGGUUC | -3.38 ± 0.13 | -2.6 ± 0.18
CGCAAGCAAUAUUACGGGCU | -1.68 ± 0.12 | -0.144 ± 0.16
UGAUAGCAAUAUUACGAUAG | -0.826 ± 0.28 | -0.505 ± 0.32
CAUAAGCAAUAUUACGAUGA | -2.58 ± 0.14 | -0.929 ± 0.13
AGCCAGCAAUAUUACGCUCA | -1.83 ± 0.1 | -1.64 ± 0.13
AUCGAGCAAUAUUACGCUUU | -2.98 ± 0.15 | -2.29 ± 0.18
GUACAGCAAUAUUACGUGUU | -2.74 ± 0.075 | -1.54 ± 0.1
AGCUAGCAAUAUUACGGGUU | -2.74 ± 0.14 | -2.12 ± 0.18
UUCAAGCAAUAUUACGUAUG | -3.21 ± 0.22 | -1.64 ± 0.17
CCGCAGCAAUAUUACGCGAG | -3.17 ± 0.12 | -2.2 ± 0.16
GAGAAGCAAUAUUACGGCCU | -0.28 ± 0.07 | 0.2 ± 0.089
GUACAGCAAUAUUACGUGCA | -3.96 ± 0.22 | -2.17 ± 0.16
CAUAAGCAAUAUUACGAGCA | -3.98 ± 0.37 | -1.77 ± 0.2
CAAUAGCAAUAUUACGCUAU | -2.69 ± 0.33 | 

Sequence | self-splicing fitness (ln) (30 °C) | self-splicing fitness (ln) (37 °C)
UCUCAGCAAUAUUACGAUAC | -1.92 ± 0.28 | -2.46 ± 0.45
GUAAAGCAAUAUUACGAAAA | -1.52 ± 0.15 | 0.0796 ± 0.28
CUUCAGCAAUAUUACGUACU | -4.13 ± 0.19 | -2.8 ± 0.19
GGAGAGCAAUAUUACGCUAG | -1.3 ± 0.36 | -0.901 ± 0.42
CGGUAGCAAUAUUACGAGGA | -3.34 ± 0.46 | -1.75 ± 0.29
CUCGAGCAAUAUUACGAUCU | -3.58 ± 0.25 | -3.53 ± 0.26
CCGCAGCAAUAUUACGCGGG | -4.07 ± 0.14 | -3.74 ± 0.12
UACAAGCAAUAUUACGAAGA | -2.08 ± 0.27 | -2.11 ± 0.21
UAUCAGCAAUAUUACGGAUA | -2.17 ± 0.24 | -1.85 ± 0.31
GCCGAGCAAUAUUACGGAAC | -1.82 ± 0.12 | -0.538 ± 0.12
GCGAAGCAAUAUUACGUACU | -0.436 ± 0.073 | 0.194 ± 0.09
GACGAGCAAUAUUACGCGGC | -3.25 ± 0.29 | 
UAUCAGCAAUAUUACGUAUU | -0.834 ± 0.078 | -0.815 ± 0.094
AUGGAGCAAUAUUACGGAGA | -2.93 ± 0.44 | -1.21 ± 0.32
GGAUAGCAAUAUUACGGUUA | -0.755 ± 0.2 | 0.0186 ± 0.17
CCUAAGCAAUAUUACGACGG | -3.49 ± 0.19 | -2.24 ± 0.24
CUUAAGCAAUAUUACGCUCG | -2.09 ± 0.22 | 0.521 ± 0.29
GAAGAGCAAUAUUACGUAAU | -3.03 ± 0.2 | -1.22 ± 0.23
UUCAAGCAAUAUUACGUCAG | -3.43 ± 0.2 | -1.23 ± 0.14
